Assay results taken from US20250361274A1, “PEPTIDE AND PEPTIDE-CONTAINING AGENT” (PEPTIDREAM INC., priority 2022, published 2025).
One block for each molecule: values may come before it. Numbered stars: 1 amine (or outer) side, 2 acyl side, 3 side chain; on linkers, the order of the positions; unused ones are H or OH. Bridge positions count the residues as written; N and C are the ends. Square brackets hold non-standard residues; d marks the D form. KCOpipzaa = N6-(4-(carboxymethyl)piperazine-1-carbonyl)-L-lysine, O=C(NCCCC[C@H](N[*:1])C(=O)[*:2])N1CCN(CC(=O)[*:3])CC1; 3Pal(6-Ph) = N[C@@H](Cc1ccc(-c2ccccc2)nc1)C(=O)O; Phe(4-COOH) = N[C@@H](Cc1ccc(C(=O)O)cc1)C(=O)O; Bip = N[C@@H](Cc1ccc(-c2ccccc2)cc1)C(=O)O; Ala(4-THP) = N[C@@H](CC1CCOCC1)C(=O)O; βAla = NCCC(=O)O

Columns and labels:
BMP7 [1] = biological target: T1, BMP7 (UniProt P18075 293-431); experiment: SPR (Biacore T200), BMP7 amine-coupled on CM5 chip, peptide as analyte, single cycle kinetics
T1 construct: also called bone morphogenetic protein 7
T1 sequence (looked up): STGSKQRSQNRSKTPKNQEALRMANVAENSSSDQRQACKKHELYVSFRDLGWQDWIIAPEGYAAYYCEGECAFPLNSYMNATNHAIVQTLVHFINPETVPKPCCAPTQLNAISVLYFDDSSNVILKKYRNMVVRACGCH
Protocol: (§1) A CM5 sensor chip (Cytiva) was inserted into a BiacoreT200 (Cytiva). Three priming runs were performed using running buffer: HBS-EP+ (Cytiva). The system was then equilibrated at a flow rate of 30 μL/min. Subsequently, 50 μL of 60 mM EDC solution (Cytiva) and 50 μL of 650 mM NHS solution (Cytiva) were mixed and were allowed to react at a flow rate of 10 μL/min for 420 seconds. The resultant was diluted with a 10 mM acetic acid solution (pH 5.0), to prepare 150 μL of 0.2 μM BMP4/BMP7 solution. The solution was allowed to react at a flow rate of 10 μL/min for 420 seconds, and the BMP4/BMP7 was immobilized in a CM5 sensor chip. After immobilization, capping was performed by reacting with 1.0 M ethanolamine aqueous solution (Cytiva) at a flow rate of 10 μL/min for 420 seconds. A liquid prepared by dissolving each peptide at 10 mM in a DMSO solution was diluted with a running buffer so that the final concentration of the peptide-dissolved liquid would be 10 μM. Then, the peptide solutions (100 nM, 50 nM, 25 nM, 10 nM, and 5 nM) were prepared. […]
(§2) The kinetics evaluation model was Single Cycle Kinetics, and curve fitting was performed using Biacore T200 Evaluation Software Version 3.0 (Cytiva). The binding of peptides to BMP4/BMP7 was evaluated by performing least-squares curve fitting on the obtained sensorgram to calculate the KD value.

BMP4 [2] = biological target: T2, BMP4 (UniProt P12644 293-408); experiment: SPR (Biacore T200), BMP4 amine-coupled on CM5 chip, peptide as analyte, single cycle kinetics
T2 construct: also called bone morphogenetic protein 4
T2 sequence (looked up): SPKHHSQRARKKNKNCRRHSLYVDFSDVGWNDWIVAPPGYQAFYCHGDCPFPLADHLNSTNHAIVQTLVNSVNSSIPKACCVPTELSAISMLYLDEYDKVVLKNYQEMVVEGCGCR
Protocol: as §1, §2

BMP4 [3] = biological target: T3, BMP4 (Homo sapiens, UniProt P12644); experiment: BMP4 signal transduction inhibitory activity: SMAD1 phosphorylation by BMP4 stimulus, AlphaLISA SureFire, A549 cells; type: cell-based
T3 sequence (P12644 293-408): T2 sequence (looked up)

BMP7 [4] = biological target: T4, BMP7 (Homo sapiens, UniProt P18075); experiment: BMP7 signal transduction inhibitory activity: SMAD1 phosphorylation by BMP7 stimulus, A549 cells; type: cell-based
T4 sequence (P18075 293-431): T1 sequence (looked up)
Summary of the method: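 SMAD1 phosphorylation readout in A549 cells stimulated with BMP7 (10 nM). Peptides were tested at three levels (e.g. 1/10/100, 10/100/1,000, 100/300/1,000, 10/30/90 nM) or at eight points, 1/3 steps, from 100 or 1,000 nM. Recombinant Noggin served as positive control at matching concentrations.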

BMP2 = BMP2 (UniProt P12643 283-396); experiment: cell-based or functional assay
BMP6 = biological target: T5, BMP6 (UniProt P22004 382-513, limits assumed); experiment: cell-based or functional assay
T5 sequence (looked up): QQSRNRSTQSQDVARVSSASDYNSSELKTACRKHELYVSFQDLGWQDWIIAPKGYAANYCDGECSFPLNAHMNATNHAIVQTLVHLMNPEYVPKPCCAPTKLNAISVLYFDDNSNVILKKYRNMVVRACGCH

BMP5 = biological target: T6, BMP5 (UniProt P22003 317-454, limits assumed); experiment: cell-based or functional assay
T6 sequence (looked up): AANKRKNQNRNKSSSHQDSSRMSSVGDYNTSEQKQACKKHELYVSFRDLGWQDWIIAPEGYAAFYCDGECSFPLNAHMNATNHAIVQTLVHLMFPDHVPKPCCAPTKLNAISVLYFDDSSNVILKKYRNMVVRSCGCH

BMP7 [5] = biological target: T1, BMP7; experiment: cell-based or functional assay
BMP4 [6] = biological target: T2, BMP4; experiment: cell-based or functional assay
BMP7 [7] = biological target: T1, BMP7; experiment: cell-based or functional assay; remark: listed apart in the source

Sequence of BMP2 (P12643 283-396 limits assumed): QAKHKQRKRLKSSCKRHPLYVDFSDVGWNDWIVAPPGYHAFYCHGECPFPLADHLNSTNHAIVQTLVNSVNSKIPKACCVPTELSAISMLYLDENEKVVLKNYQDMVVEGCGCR

B2: Noggin: recombinant Human Noggin Protein (R&D), positive control; secreted protein that has BMP inhibitory activity (protein)
chain: QHYLHIRPAPSDNLPLVDLIEHPDPIFDPKEKDLNETLLRSLLGGHYDPGFMATSPPEDRPGGGGGAAGGAEDLAELDQLLRQRPSGAMPSEIKGLEFSEGLAQGKKQRLSKKLRRKLQMWLWSQTFCPVLYAWNDLGSRFWPRYVKVGSCFSKRSCSVPEGMVCKPSKSVHLTVLRWRCQRRGGQRCGWIPIQYPIISECKCSC
- IC50 (BMP4 [3]; Table 2-2, 277 from 20 nM (1/3), 417 from 300 nM (1/4), ND = IC50 was not calculated): 0.13 nM
- IC50 (BMP4 [3]; Table 2, eight concentrations, ratio 1/3 from 2 nM, A549 cells): 0.08 nM
- IC50 (BMP7 [4]; Table 2-2, 277 from 1,000 nM (1/3), 417 from 300 nM (1/4)): 5.74 nM
- IC50 (BMP7 [4]; Table 2, eight concentrations, ratio 1/3 from 100 nM, ND = IC50 was not calculated in the evaluation systems): 2.7 nM

B3: BMP4 signal transduction inhibition peptide No. 177 (SEQ ID NO: 177) (peptide)
peptide: {CH2CO}-ERV[Phe(4-COOH)][Ala(4-THP)]DR[Bip]PYP[Bip]Y[Phe(4-COOH)][Phe(4-COOH)]SC[βAla][dE]-OH
modifications: thioether N-17
SMILES: CC(C)[C@@H]1NC(=O)[C@H](CCCNC(=N)N)NC(=O)[C@H](CCC(=O)O)NC(=O)CSC[C@@H](C(=O)NCCC(=O)N[C@H](CCC(=O)O)C(=O)O)NC(=O)[C@H](CO)NC(=O)[C@H](Cc2ccc(C(=O)O)cc2)NC(=O)[C@H](Cc2ccc(C(=O)O)cc2)NC(=O)[C@H](Cc2ccc(O)cc2)NC(=O)[C@H](Cc2ccc(-c3ccccc3)cc2)NC(=O)[C@@H]2CCCN2C(=O)[C@H](Cc2ccc(O)cc2)NC(=O)[C@@H]2CCCN2C(=O)[C@H](Cc2ccc(-c3ccccc3)cc2)NC(=O)[C@H](CCCNC(=N)N)NC(=O)[C@H](CC(=O)O)NC(=O)[C@H](CC2CCOCC2)NC(=O)[C@H](Cc2ccc(C(=O)O)cc2)NC1=O
notes: thioether ring between N-terminal chloroacetyl and Cys17
- IC50, SMAD1 phosphorylation, BMP2 0.3 nM (BMP2): 0.21 nM
- IC50, SMAD1 phosphorylation, BMP6 3 nM (BMP6): 3.9 nM
- IC50, SMAD1 phosphorylation, BMP5 2 nM (BMP5): 9.17 nM
- IC50, SMAD1 phosphorylation, BMP7 10 nM (BMP7 [5]): 1.43 nM
- Kd (BMP7 [1]): 2.3 nM
- Kd (BMP4 [2]): 0.4 nM
- IC50 (nM), SMAD1 phosphorylation in A549 cells (BMP4 [6]): 0.053 nM
- IC50 (nM), SMAD1 phosphorylation in A549 cells (BMP7 [7]): 1.4 nM

B4: BMP4 signal transduction inhibition peptide No. 181 (peptide)
peptide: {CH2CO}-ERV[Phe(4-COOH)][Ala(4-THP)][KCOpipzaa]R[Bip]PYP[Bip]Y[Phe(4-COOH)][Phe(4-COOH)]SC[βAla][dE]-OH
modifications: thioether N-17 (inferred)
- IC50 (nM), SMAD1 phosphorylation in A549 cells (BMP4 [6]): 0.052 nM
- IC50 (nM), SMAD1 phosphorylation in A549 cells (BMP7 [7]): 1.6 nM

Now from value to molecule:

- Kd (BMP7 [1]): 21.7 nM
- Kd (BMP4 [2]): 2.1 nM
B1: BMP4 signal transduction inhibition peptide No. 84 (SEQ ID NO: 84) (peptide)
peptide: {CH2CO}-ERVYVDR[Bip]PYV[Bip]Y[Phe(4-COOH)][Phe(4-COOH)]SC[βAla][dE]-OH
modifications: thioether N-17
SMILES: CC(C)[C@@H]1NC(=O)[C@H](Cc2ccc(O)cc2)NC(=O)[C@H](C(C)C)NC(=O)[C@H](CCCNC(=N)N)NC(=O)[C@H](CCC(=O)O)NC(=O)CSC[C@@H](C(=O)NCCC(=O)N[C@H](CCC(=O)O)C(=O)O)NC(=O)[C@H](CO)NC(=O)[C@H](Cc2ccc(C(=O)O)cc2)NC(=O)[C@H](Cc2ccc(C(=O)O)cc2)NC(=O)[C@H](Cc2ccc(O)cc2)NC(=O)[C@H](Cc2ccc(-c3ccccc3)cc2)NC(=O)[C@H](C(C)C)NC(=O)[C@H](Cc2ccc(O)cc2)NC(=O)[C@@H]2CCCN2C(=O)[C@H](Cc2ccc(-c3ccccc3)cc2)NC(=O)[C@H](CCCNC(=N)N)NC(=O)[C@H](CC(=O)O)NC1=O
notes: as for B3

- IC50 (nM), SMAD1 phosphorylation in A549 cells (BMP4 [6]): 0.08 nM
B5: BMP4 signal transduction inhibition peptide No. 87 (SEQ ID NO: 87) (peptide)
peptide: {CH2CO}-ERVYVDR[3Pal(6-Ph)]SYV[Bip]Y[Phe(4-COOH)][Phe(4-COOH)]SCG-NH2
modifications: thioether N-17 (inferred)
